One data set deals with RNA. Nature of the data set: ribonuclease (enzyme) activity compared with native human RNase 1. It is filed as biochemical.
The target of the next data set is T1, ribonuclease inhibitor (Homo sapiens, UniProt P13489).
T1 sequence (P13489 1-461): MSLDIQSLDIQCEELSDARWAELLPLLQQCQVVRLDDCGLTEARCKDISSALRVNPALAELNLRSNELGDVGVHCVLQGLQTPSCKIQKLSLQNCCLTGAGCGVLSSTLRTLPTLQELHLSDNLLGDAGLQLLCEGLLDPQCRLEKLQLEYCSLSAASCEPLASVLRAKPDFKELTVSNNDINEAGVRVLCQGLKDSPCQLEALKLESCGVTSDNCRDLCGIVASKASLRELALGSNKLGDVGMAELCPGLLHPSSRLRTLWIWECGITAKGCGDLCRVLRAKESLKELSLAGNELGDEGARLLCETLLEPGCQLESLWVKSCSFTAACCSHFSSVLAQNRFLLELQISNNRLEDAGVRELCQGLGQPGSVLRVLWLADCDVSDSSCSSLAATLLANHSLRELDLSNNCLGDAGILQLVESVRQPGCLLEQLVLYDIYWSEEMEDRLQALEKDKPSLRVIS
The experiment in a line: ribonuclease inhibitor evasion. Particulars: compared with QBI-119 and native human RNase 1. It is filed as binding.

B1: SEQ ID NO:1: native human RNase 1 with amino acid modifications R4C, G38R, R39G, N67R, G89R, S90R, and V118C (protein)
chain: KESCAKKFQRQHMDSDSSPSSSSTYCNQMMRRRNMTQRGCKPVNTFVHEPLVDVQNVCFQEKVTCKRGQGNCYKSNSSMHITDCRLTNRRRYPNCAYRTSPKERHIIVACEGSPYVPCHFDASVEDST
As for B1, in the data set on RNA (compared with QBI-119 and native human RNase 1), the “enzyme activity, comparison in words” value was “inferior to QBI-119 and native human RNase 1”. The “fraction of the ribonuclease activity of native human RNase1” value with RNA (relative to native human RNase 1) is on record as “less than 1%”. Further, the “ribonuclease inhibitor evasion, comparison in words” value with ribonuclease inhibitor was “inferior to QBI-119 and native human RNase 1”.

Source of the values: patent US9579365B2, “Therapeutic ribonucleases” (Quintessence Biosciences, Inc., priority 2008, dated 2017).
